The sequences below were run on Escherichia coli TOP10 (assay: shrunken log2 fold change of peptide-encoding DNA abundance (4.5 h post-induction vs induction); higher = less antimicrobial activity (less host growth inhibition)). Conditions: time post-induction: 4.5 h; library: site-saturation at positions 5, 18, 19, 20.
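Further: peptides expressed intracellularly from a pBAD plasmid library in pooled LB shake-flask culture, induced with 0.3% L-arabinose, DNA abundance read by NGS, three biological replicates, DESeq2 with apeglm shrinkage.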

RRIRMRPPRLPRPRPRPKHRPRP and RRIRLRPPRLPRPRPRPVQIPRP are within 0.2 log units of each other in “shrunken log2 fold change” value: 0.229 for the first, 0.364 for the second.

Going from RRIRARPPRLPRPRPRPNALPRP to RRIRFRPPRLPRPRPRPDAWPRP, the “shrunken log2 fold change” value falls from 0.296 to 0.0823.

First: RRIRCRPPRLPRPRPRPETTPRP
Second: RRIRKRPPRLPRPRPRPGEWPRP
The “shrunken log2 fold change” value of the first is higher: 0.394 for the first, -0.0202 for the second.

RRIRMRPPRLPRPRPRPCLVPRP and RRIRCRPPRLPRPRPRPCGEPRP are within 0.2 log units of each other in “shrunken log2 fold change” value: 0.0451 for the first, 0.218 for the second.

Going from RRIRNRPPRLPRPRPRPQFAPRP to RRIRARPPRLPRPRPRPSCEPRP, the “shrunken log2 fold change” value rises from -0.0842 to 0.128.

Compared with RRIRYRPPRLPRPRPRPKFWPRP, RRIRPRPPRLPRPRPRPKGNPRP is lower in “shrunken log2 fold change” value: 0.449 for the first, -0.097 for the second.

First: RRIRYRPPRLPRPRPRPRNNPRP
Second: RRIRTRPPRLPRPRPRPHQHPRP
The “shrunken log2 fold change” value of the first is lower: -0.738 for the first, -0.415 for the second.

RRIRCRPPRLPRPRPRPFPGPRP and RRIRKRPPRLPRPRPRPCHNPRP are within 0.2 log units of each other in “shrunken log2 fold change” value: -0.0106 for the first, -0.111 for the second.

Going from RRIRDRPPRLPRPRPRPMFPPRP to RRIRARPPRLPRPRPRPMKPPRP, the “shrunken log2 fold change” value rises from -0.257 to 0.101.

RRIRVRPPRLPRPRPRPRNRPRP and RRIRLRPPRLPRPRPRPMYQPRP are within 0.2 log units of each other in “shrunken log2 fold change” value: -0.338 for the first, -0.29 for the second.

Going from RRIRKRPPRLPRPRPRPKQGPRP to RRIRWRPPRLPRPRPRPTHKPRP, the “shrunken log2 fold change” value rises from 0.121 to 0.396.

RRIRSRPPRLPRPRPRPDDSPRP and RRIRARPPRLPRPRPRPCWMPRP are within 0.2 log units of each other in “shrunken log2 fold change” value: -0.237 for the first, -0.102 for the second.

Going from RRIRRRPPRLPRPRPRPMAKPRP to RRIRQRPPRLPRPRPRPESCPRP, the “shrunken log2 fold change” value falls from 0.315 to -0.0209.

Compared with RRIRDRPPRLPRPRPRPVTLPRP, RRIRFRPPRLPRPRPRPPWEPRP is higher in “shrunken log2 fold change” value: -0.283 for the first, 0.124 for the second.

RRIRDRPPRLPRPRPRPIMDPRP and RRIRGRPPRLPRPRPRPVHNPRP are within 0.2 log units of each other in “shrunken log2 fold change” value: 0.308 for the first, 0.259 for the second.

First: RRIRMRPPRLPRPRPRPIIDPRP
Second: RRIRVRPPRLPRPRPRPSRNPRP
The “shrunken log2 fold change” value of the first is lower: -0.399 for the first, -0.0696 for the second.

RRIRERPPRLPRPRPRPDQYPRP and RRIRYRPPRLPRPRPRPNQEPRP are within 0.2 log units of each other in “shrunken log2 fold change” value: -0.0158 for the first, 0.000655 for the second.

Compared with RRIRVRPPRLPRPRPRPYESPRP, RRIRRRPPRLPRPRPRPKGAPRP is higher in “shrunken log2 fold change” value: -0.0252 for the first, 0.28 for the second.

Going from RRIRFRPPRLPRPRPRPWDTPRP to RRIRSRPPRLPRPRPRPTWWPRP, the “shrunken log2 fold change” value rises from -0.421 to 0.422.

Going from RRIRQRPPRLPRPRPRPLHNPRP to RRIRKRPPRLPRPRPRPYPMPRP, the “shrunken log2 fold change” value falls from 0.00263 to -0.2.

Going from RRIRSRPPRLPRPRPRPPIAPRP to RRIRPRPPRLPRPRPRPSFRPRP, the “shrunken log2 fold change” value falls from 2.36 to -0.142.

Compared with RRIRSRPPRLPRPRPRPNIFPRP, RRIRTRPPRLPRPRPRPGDSPRP is higher in “shrunken log2 fold change” value: -0.138 for the first, 0.152 for the second.

Going from RRIRPRPPRLPRPRPRPYCPPRP to RRIRWRPPRLPRPRPRPTTFPRP, the “shrunken log2 fold change” value rises from -0.365 to -0.09.

First: RRIRFRPPRLPRPRPRPICIPRP
Second: RRIRARPPRLPRPRPRPPQIPRP
The “shrunken log2 fold change” value of the first is lower: -0.399 for the first, 0.599 for the second.

Compared with RRIRMRPPRLPRPRPRPCACPRP, RRIRDRPPRLPRPRPRPLYHPRP is lower in “shrunken log2 fold change” value: 0.0487 for the first, -0.54 for the second.

First: RRIRRRPPRLPRPRPRPQPIPRP
Second: RRIRQRPPRLPRPRPRPQGHPRP
The “shrunken log2 fold change” value of the first is higher: 0.206 for the first, -0.017 for the second.

RRIRRRPPRLPRPRPRPWWYPRP and RRIRPRPPRLPRPRPRPEMFPRP are within 0.2 log units of each other in “shrunken log2 fold change” value: -0.303 for the first, -0.112 for the second.

Going from RRIRGRPPRLPRPRPRPYSSPRP to RRIRRRPPRLPRPRPRPRLMPRP, the “shrunken log2 fold change” value rises from -0.223 to 0.316.

Going from RRIRSRPPRLPRPRPRPREQPRP to RRIRIRPPRLPRPRPRPTTSPRP, the “shrunken log2 fold change” value falls from 0.796 to -0.0703.

First: RRIRTRPPRLPRPRPRPVILPRP
Second: RRIRLRPPRLPRPRPRPGHVPRP
The “shrunken log2 fold change” value of the first is lower: -0.994 for the first, 0.0522 for the second.
